Reference: US20180140716A1

Assays:
CD33 on HL-60 cells = CD33 on HL-60 cells (UniProt P20138); assay: cell-based or functional assay
[1] = target: 5T4 antigen on cells (human (human cancer cell lines)) (UniProt Q13641); assay: flow cytometry (MFI) on 5T4 expressing cells, anti-Fc FITC detection
Chain of UniProt Q13641 (Q13641 32-420): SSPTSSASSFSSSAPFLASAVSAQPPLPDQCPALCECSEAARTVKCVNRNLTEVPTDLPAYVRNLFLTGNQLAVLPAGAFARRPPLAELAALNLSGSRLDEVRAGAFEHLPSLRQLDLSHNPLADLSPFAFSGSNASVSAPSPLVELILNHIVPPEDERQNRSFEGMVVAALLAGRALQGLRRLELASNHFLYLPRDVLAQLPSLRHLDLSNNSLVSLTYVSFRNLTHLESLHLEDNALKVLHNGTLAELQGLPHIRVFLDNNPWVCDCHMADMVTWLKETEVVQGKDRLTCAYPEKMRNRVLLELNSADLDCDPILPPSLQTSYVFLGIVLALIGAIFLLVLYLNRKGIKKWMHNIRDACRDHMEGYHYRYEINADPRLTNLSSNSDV

Chain of UniProt P20138 (P20138 18-364 limits assumed): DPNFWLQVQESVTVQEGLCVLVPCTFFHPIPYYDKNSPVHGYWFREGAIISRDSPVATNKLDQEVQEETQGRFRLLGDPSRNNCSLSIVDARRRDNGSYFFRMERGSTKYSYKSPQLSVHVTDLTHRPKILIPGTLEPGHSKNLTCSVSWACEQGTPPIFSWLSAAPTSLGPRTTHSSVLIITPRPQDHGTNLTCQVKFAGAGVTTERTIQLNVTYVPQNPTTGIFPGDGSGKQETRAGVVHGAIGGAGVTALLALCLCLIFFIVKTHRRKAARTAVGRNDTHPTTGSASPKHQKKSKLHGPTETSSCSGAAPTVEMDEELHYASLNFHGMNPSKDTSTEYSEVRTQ

Row | IC50, antiproliferation (Cell Titer-Glo), HL-60 cells (CD33 on HL-60 cells) [nmol/L] | fold less binding than the anti-5T4 scFvFc proteins [1] [fold less] | Substance
1 | 0.77 |  | Lintuzumab-((EG2-MI (2%)-(10 kDa PHF-BA (30%)-(AF-HPA-Ala (9%)), AF-HPA:lintuzumab about 10:1 to about 15:1 (antibody)
2 |  | 200 | non-binding scFvFc fusion protein
